This note sets out measurements from paper PMC10967246 (2023).

By Kd is commonly meant a measure of binding affinity in units of concentration.

Common to all, as to experiment: MST
Test [1] has as its target T1, recombinant His-tagged PORA (Arabidopsis, UniProt Q42536 70-405).
T1 chain: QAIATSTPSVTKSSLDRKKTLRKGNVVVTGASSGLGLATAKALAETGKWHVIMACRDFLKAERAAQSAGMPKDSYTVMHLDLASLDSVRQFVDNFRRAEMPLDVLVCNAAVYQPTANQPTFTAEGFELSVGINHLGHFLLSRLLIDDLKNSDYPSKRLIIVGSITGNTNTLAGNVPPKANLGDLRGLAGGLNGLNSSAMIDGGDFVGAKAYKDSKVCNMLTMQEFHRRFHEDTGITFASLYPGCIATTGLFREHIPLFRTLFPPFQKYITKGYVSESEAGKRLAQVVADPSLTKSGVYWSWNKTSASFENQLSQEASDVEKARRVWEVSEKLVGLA

Test [2] has as its target T2, linker domain followed by the TPR domain of FLU, link TPR_((FLU)) (Arabidopsis).
T2 chain: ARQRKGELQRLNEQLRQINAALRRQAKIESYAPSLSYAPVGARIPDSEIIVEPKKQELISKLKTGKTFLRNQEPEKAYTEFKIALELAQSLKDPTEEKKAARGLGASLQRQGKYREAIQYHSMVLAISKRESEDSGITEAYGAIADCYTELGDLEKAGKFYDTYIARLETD

For another test, the target named is GST-tag (Schistosoma japonicum).
In test [3] the target is T3, recombinant His-tagged PORB (Arabidopsis, UniProt P21218 67-401).
T3 chain: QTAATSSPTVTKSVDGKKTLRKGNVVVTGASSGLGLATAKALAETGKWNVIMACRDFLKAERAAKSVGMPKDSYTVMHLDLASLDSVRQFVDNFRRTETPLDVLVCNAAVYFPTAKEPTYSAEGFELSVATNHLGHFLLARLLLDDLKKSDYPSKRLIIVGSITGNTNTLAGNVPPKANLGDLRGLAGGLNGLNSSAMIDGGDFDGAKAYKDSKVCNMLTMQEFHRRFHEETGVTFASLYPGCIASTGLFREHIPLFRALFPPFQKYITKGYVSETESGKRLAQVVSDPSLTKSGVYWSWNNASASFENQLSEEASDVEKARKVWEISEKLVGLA

The target in test [4] is T4, TPR domain of FLU, TPR_((FLU)), GST-tagged (Arabidopsis).
T4 chain: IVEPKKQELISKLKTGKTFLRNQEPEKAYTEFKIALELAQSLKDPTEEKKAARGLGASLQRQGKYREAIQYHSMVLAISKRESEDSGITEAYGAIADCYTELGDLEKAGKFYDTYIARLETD

Test [5] addresses T5, recombinant His-tagged GluTR-binding protein (GBP) (Arabidopsis, UniProt Q9LU39 43-317).
T5 chain: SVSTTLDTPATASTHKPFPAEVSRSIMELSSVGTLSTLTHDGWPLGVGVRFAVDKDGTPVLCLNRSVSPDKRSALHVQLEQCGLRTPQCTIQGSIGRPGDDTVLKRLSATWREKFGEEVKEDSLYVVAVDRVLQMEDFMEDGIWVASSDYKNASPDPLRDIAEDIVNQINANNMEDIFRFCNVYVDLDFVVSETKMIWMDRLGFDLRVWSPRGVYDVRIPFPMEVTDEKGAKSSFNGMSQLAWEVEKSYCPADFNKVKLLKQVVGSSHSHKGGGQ

Another test concerns the target T6, ΔREDGluTR-6xHis (Arabidopsis thaliana).
T6 chain: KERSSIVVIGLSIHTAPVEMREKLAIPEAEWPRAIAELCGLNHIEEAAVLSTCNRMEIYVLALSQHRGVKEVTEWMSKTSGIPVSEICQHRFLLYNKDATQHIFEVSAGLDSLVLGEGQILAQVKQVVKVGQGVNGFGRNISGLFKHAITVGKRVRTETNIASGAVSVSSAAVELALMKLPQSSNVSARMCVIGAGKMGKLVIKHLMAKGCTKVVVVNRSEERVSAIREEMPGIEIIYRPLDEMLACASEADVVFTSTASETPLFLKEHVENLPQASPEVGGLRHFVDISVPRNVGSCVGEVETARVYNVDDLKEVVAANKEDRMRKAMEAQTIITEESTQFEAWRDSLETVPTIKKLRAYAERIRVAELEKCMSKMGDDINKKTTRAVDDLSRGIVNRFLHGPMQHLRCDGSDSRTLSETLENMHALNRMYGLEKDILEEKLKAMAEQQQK

The target in test [6] is T7, recombinant His-tagged full-length GluTR1 (Arabidopsis, UniProt P42804 62-543).
T7 chain: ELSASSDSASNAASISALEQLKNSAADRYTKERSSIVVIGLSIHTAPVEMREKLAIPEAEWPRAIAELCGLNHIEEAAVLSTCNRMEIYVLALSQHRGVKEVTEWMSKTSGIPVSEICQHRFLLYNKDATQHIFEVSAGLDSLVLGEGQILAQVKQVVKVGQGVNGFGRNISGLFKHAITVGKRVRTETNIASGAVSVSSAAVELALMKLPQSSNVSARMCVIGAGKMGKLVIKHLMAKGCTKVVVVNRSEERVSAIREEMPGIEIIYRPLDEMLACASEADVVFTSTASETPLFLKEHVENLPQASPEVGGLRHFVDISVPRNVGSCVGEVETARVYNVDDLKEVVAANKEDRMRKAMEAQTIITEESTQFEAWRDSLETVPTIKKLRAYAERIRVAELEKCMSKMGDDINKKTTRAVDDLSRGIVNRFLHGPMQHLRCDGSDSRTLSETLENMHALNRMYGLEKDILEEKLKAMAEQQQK

The target of test [7] is T8, recombinant His-tagged PORC (Arabidopsis, UniProt O48741 68-401).
T8 chain: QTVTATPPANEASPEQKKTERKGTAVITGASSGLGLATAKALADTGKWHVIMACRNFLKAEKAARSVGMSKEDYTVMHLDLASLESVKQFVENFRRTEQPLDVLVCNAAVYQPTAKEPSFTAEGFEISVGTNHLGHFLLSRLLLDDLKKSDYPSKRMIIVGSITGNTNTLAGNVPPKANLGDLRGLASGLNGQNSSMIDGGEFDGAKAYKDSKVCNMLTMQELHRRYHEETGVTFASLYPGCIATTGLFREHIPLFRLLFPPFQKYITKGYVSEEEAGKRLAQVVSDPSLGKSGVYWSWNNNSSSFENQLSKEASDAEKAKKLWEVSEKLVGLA

B1: recombinant 6×His-tagged TTP1, RED-NHS labelled (natural protein)
chain: MLMTLAATTSVSFNSKLLLFRIRCSDSNPKRGFGSKKEEKDPALQQRKSSSKQSVSVPRKAPGLNTQFEGKSGRSFDIDFDERLENIRRSALEQKKTEVVKEFGPIDYDAPVKSDQKTIGLGTKVGVGIAVVVFGLVFALGDFLPTGSDSPTKNTTVVKNQISEEEKATLQQRLKEFETTLNGTPQDQAALEGAAVTLTELGDYSRAAAFLEKLAKERPTDPDVFRLLGEVNYELNNYEGSIAAYKISEKVSKGIDLEVTRGLMNAYLAAKKPDEAVKFLLDTRERLNTKKTSTTDSVTDETNLDPIQVELLLGKAYSDWGHISDAIAVYDQLISAHPEDFRGYLAKGIILRENGSRGDAERMFIQARFFAPNKAKALVDRYSKL
modifications: labelled with the RED-NHS Protein Labeling Kit, degree of labeling approximately 1.0
Regarding B1, the Kd in [1] was 1.31 µM; in [2] it was 1.61 µM; with GST-tag, greater than 400 µM; in [3], 0.476 µM; in [4], 7.9 µM; in test [5] it was 0.266 µM. For the same molecule, the Kd with ΔREDGluTR-6xHis was 3.05 µM; in test [6] it was 0.295 µM; in test [7], 0.112 µM.
